Literature values, collected in article PMC6783463.

Target: PTH (15-34) 15-34 (Homo sapiens) (UniProt P01270)
Details: cited from earlier work

Sequence of UniProt P01270 (P01270 15-34): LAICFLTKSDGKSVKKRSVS

Q: Which Kd does the source give for PTH1R ECD (from UniProt Q03431) here?
A: 1000 nM
